We go through four substances from PMC5501646.

In data set [1] the test system is HfqPae (wild type) (Pseudomonas aeruginosa PAO1). The data set is described as follows: MST. The settings on record: 1 mM Mg2+, 25 C, MST: 10 mM Tris pH 8.0, 40 mM NaCl, 10 mM KCl, 1 mM MgCl2, 0.05% Tween, EMSA: 10 mM Tris-HCl pH 8.0, 10 mM MgCl2, 60 mM NaCl, 10 mM NaH2PO4, 10 mM DTT ….
The target in data set [2] is HfqPae (wild type) (Pseudomonas aeruginosa PAO1) (UniProt Q9HUM0). The data set is described as follows: EMSA. As to conditions: MST: 10 mM Tris pH 8.0, 40 mM NaCl, 10 mM KCl, 1 mM MgCl2, 0.05% Tween, 25 C; EMSA: 10 mM Tris-HCl pH 8.0, 10 mM MgCl2, 60 mM NaCl, 10 mM NaH2PO4, 10 mM DTT ….
For data set [3] the target is unchanged. In words: MST. As to conditions: MST: 10 mM Tris pH 8.0, 40 mM NaCl, 10 mM KCl, 1 mM MgCl2, 0.05% Tween, 25 C; EMSA: 10 mM Tris-HCl pH 8.0, 10 mM MgCl2, 60 mM NaCl, 10 mM NaH2PO4, 10 mM DTT …. On the technique in general: In EMSA bound probe runs differently from free probe, usually more slowly.
Data set [4] deals with HfqPaeY25DFlag Y25D (Pseudomonas aeruginosa PAO1) (UniProt Q9HUM0). In words: EMSA. The settings on record: MST: 10 mM Tris pH 8.0, 40 mM NaCl, 10 mM KCl, 1 mM MgCl2, 0.05% Tween, 25 C; EMSA: 10 mM Tris-HCl pH 8.0, 10 mM MgCl2, 60 mM NaCl, 10 mM NaH2PO4, 10 mM DTT ….

In general, Kd refers to the equilibrium constant for the complex coming apart. Read a low Kd as tighter binding. On to CrcZ RNA, for which the dissociation constant Kd in data set [1] (30 nM labelled Hfq) turned out to be 0.0074 µM. As to “GGACUGGUCGCGAGGCCAGCAGGUAAGCUGAGAGACCAAGCAGUCGGACUCUUCAGAUUAUCUCCUCAUCAGGCUAAUCACGGUUUCGACCCGGCACUUUGCCGGGUCUUUUUUUG [PrrF2 sRNA]”, in data set [2], the binding entry is reported as “binds”. “GGGAGCCGGCCUUGCGCCGGCAUAUGCCUUGCAUUUUGCUGAAAACAGAGCGCCAGCAGAGCGCACCCCCAGCCUUGCCGUGUCGAGUGCCGAACCAUGAUGAGGACCCAUCCCGUCGCCGAUCGUGGCGAUCUCCAUGCCGACCACCUGGACCUGGCCGCCG [antR(-95-+67) mRNA fragment]”: the equilibrium dissociation constant (Kd) in data set [3] was 0.0373 µM. Also, in data set [4], the binding entry is given as “no binding”. With antR(-95-+67) mRNA fragment, the Kd in data set [1] (20 nM labelled Hfq) worked out at 0.0373 µM.
